# From US20250163181A1 (SAINT LOUIS UNIVERSITY, published 2025)
# T1: β2-glycoprotein I (UniProt P02749 20-345)
# T1 construct: also called B2-glycoprotein I; β2GPI
# T1 sequence (looked up): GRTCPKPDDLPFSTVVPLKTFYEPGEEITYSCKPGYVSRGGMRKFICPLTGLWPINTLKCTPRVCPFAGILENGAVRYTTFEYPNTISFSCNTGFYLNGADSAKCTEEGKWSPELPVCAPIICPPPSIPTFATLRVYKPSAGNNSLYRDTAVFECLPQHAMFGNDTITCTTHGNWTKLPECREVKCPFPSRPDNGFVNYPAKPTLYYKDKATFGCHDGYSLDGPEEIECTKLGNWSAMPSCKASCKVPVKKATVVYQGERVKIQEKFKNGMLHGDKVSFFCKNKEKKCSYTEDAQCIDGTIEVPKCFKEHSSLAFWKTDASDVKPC
# T2: factor XII (UniProt P00748 20-615)
# T2 construct: also called FXII
# T2 sequence (looked up): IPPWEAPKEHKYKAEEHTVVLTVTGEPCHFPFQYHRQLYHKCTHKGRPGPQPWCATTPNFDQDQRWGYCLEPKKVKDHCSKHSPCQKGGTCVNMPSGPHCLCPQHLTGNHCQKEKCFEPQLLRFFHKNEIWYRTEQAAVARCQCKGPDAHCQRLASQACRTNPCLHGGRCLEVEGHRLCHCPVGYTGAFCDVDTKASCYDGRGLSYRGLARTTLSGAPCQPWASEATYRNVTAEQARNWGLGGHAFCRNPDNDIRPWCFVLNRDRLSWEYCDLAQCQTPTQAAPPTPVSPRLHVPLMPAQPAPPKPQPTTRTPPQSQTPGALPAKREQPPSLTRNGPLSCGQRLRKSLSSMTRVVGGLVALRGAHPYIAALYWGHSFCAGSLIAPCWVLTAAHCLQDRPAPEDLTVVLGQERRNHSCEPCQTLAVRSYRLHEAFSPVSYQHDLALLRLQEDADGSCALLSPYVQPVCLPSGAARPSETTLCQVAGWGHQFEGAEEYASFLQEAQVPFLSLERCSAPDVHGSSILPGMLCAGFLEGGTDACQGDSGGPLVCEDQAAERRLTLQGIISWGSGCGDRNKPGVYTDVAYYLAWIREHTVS
# B1: 5B10 monoclonal antibody (antibody, V domains shown)
# VH: QIQLVQSGPELKKPGETVKISCKASGYTFTNYGMNWVKQAPGKGLKWMGWINTYTGEPTYADDFKGRFAFSLETSASTAYLQINNLKNEDMATYFCARGGYYYGNNYEAYWGQGTLVTVSA
# VL: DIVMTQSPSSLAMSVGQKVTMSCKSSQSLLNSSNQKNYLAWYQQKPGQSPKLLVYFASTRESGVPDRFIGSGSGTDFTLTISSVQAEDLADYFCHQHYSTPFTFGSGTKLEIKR
# notes: also called clone 5B10
# B2: POmAb (Prothrombin Open monoclonal Antibody) (antibody, mouse IgG1, kappa, V domains shown)
# VH: EVHLVESGGGLVKPGGSLKLSCAASGFTFSSYYMYWVRQTPEKRLEWVATISNGGIYTYYLDSVRGRFTISRDNAKNILYLQMSGLSSADSAIYYCTRDGERQGAMDYWGQGTSVTVSS
# VL: QIVLTQSPAIMSVSLGERVTMTCIVSSSVSSTYLHWYQQKPGSSPKLWIYSSSNLASGVPTRFSGSGSGTSHSLTISSMEAEDAAAYYCQLYRRSPLTFGAGTKLELKR
# notes: also called POmAb IgG; IgG POmAb
# Assays:
# [1] = biological target: T3, prothrombin variant S91A/Y93A (human, UniProt P00734 44-622, S91A; Y93A); test: ELISA, antigen immobilised, Hill fit
# T3 construct: range 1-579; Recombinant, expressed in Expi293 cells in the presence of vitamin K. Positions 91 and 93 count on the mature protein; also called ProTS91A/Y93A
# [2] = biological target: T4, human prothrombin wild-type (human, UniProt P00734 44-622); test: ELISA, antigen immobilised, Hill fit
# T4 construct: range 1-579; Residue numbers count on the mature protein, not on the precursor entry; In some runs 200 uM argatroban was added to force the open form; also called coagulation factor II; PT
# [3] = biological target: T5, kringle-1 of human prothrombin (amino acids 44-155) (human, UniProt P00734 87-198); test: ELISA, antigen immobilised, Hill fit
# T5 construct: Numbers count on the mature protein
# [4] = biological target: T6, kringle-2 of human prothrombin (amino acids 156-271) (human, UniProt P00734 199-314); test: ELISA, immobilised antigen, 5B10 titrated, OD at 450 nm [panel B]
# T6 construct: range 156-271; Numbers count on the mature protein
# [5] = biological target: T4, human prothrombin wild-type; test: SPR, POmAb immobilised; prothrombin with 200 µM argatroban (open form)
# [6] = biological target: T4, human prothrombin wild-type; test: SPR, POmAb immobilised, second set; prothrombin with argatroban (open form)
# [7] = biological target: T3, prothrombin variant S91A/Y93A; test: SPR, calculated from Kd; SPR, first set, Tris pH 7.4; ΔG calculated from Kd
# [8] = biological target: T3, prothrombin variant S91A/Y93A; test: SPR, POmAb immobilised on CM5, 1:1 model, 25 C; SPR, first set, 20 mM Tris pH 7.4, 25 C: weak binding with fast dissociation
# [9] = biological target: T6, kringle-2 of human prothrombin (amino …); test: ELISA, antigen coated on the plate, POmAb detected with anti-mouse IgG (gamma)-HRP and TMB, OD at 450 nm [panel C]
# [10] = biological target: T1, β2-glycoprotein I; test: as above
# [11] = biological target: T2, factor XII; test: as above
# [12] = biological target: tissue plasminogen activator (UniProt P00750 36-562); test: as above
# Sequence of tissue plasminogen activator (P00750 36-562): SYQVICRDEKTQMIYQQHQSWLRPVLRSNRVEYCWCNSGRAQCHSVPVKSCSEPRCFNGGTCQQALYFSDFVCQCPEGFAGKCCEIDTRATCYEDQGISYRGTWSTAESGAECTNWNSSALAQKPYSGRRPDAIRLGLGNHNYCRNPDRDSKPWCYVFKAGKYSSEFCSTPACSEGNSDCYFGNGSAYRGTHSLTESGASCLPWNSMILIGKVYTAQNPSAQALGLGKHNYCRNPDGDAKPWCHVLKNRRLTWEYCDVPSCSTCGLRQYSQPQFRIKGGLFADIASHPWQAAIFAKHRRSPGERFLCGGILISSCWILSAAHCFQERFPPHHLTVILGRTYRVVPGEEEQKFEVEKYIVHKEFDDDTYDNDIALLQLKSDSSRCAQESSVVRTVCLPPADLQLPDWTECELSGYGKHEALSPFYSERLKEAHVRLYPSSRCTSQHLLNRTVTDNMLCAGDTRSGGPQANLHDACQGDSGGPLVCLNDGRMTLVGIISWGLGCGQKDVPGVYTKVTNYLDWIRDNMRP
# [13] = biological target: plasminogen (UniProt P00747 20-810, limits assumed); test: as above
# Sequence of plasminogen (P00747 20-810 limits assumed): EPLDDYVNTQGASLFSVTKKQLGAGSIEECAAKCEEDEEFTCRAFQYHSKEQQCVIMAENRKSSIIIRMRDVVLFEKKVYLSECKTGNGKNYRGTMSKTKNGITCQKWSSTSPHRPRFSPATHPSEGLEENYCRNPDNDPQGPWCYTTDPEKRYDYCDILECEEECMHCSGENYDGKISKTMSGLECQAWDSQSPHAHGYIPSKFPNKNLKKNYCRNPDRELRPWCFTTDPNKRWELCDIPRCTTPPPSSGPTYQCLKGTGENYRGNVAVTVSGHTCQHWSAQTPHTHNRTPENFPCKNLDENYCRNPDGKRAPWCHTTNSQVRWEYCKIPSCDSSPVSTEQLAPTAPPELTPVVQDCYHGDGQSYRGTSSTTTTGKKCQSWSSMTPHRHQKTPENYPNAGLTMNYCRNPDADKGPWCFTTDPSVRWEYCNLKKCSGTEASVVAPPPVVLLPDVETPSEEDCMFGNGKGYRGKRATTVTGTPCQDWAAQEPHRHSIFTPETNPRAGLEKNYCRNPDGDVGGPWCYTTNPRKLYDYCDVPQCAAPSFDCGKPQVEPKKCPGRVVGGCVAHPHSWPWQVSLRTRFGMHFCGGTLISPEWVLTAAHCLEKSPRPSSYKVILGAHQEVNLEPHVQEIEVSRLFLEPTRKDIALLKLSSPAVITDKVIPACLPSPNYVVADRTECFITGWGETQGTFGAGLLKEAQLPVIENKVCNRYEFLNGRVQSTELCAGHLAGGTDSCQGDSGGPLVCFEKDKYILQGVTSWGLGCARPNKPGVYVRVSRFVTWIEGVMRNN
# [14] = biological target: T3, prothrombin variant S91A/Y93A; test: SPR, POmAb immobilised, second set, HEPES buffer, 25 C
# [15] = biological target: T4, human prothrombin wild-type; test: as above
# [16] = biological target: T5, kringle-1 of human prothrombin (amino …); test: as above
# [17] = biological target: T4, human prothrombin wild-type; test: SPR, POmAb immobilised on CM5, 1:1 model, 25 C
# [18] = biological target: T5, kringle-1 of human prothrombin (amino …); test: SPR, POmAb immobilised on CM5, 1:1 model, 25 C
# [19] = biological target: T3, prothrombin variant S91A/Y93A; test: SPR, POmAb immobilised
# [20] = biological target: T4, human prothrombin wild-type; test: SPR, calculated from Kd
# [21] = biological target: T5, kringle-1 of human prothrombin (amino …); test: SPR, calculated from Kd
# [22] = biological target: T4, human prothrombin wild-type; test: SPR, second set, calculated from Kd; prothrombin with argatroban
# [23] = biological target: T3, prothrombin variant S91A/Y93A; test: SPR, second set, calculated from Kd
# [24] = biological target: T4, human prothrombin wild-type; test: SPR, second set, calculated from Kd
# [25] = biological target: T5, kringle-1 of human prothrombin (amino …); test: SPR, second set, calculated from Kd
# [26] = biological target: T4, human prothrombin wild-type; test: SPR, calculated from Kd; prothrombin with 200 µM argatroban
# [27] = biological target: T3, prothrombin variant S91A/Y93A; test: SPR, POmAb immobilised, second set, HEPES buffer, 25 C; SPR, second set, 20 mM HEPES pH 7.4, 25 C: weak binding with fast dissociation
binder,measurement,setting,value
B1,EC50,[1],0.038 µg/mL
same,EC50,[2],0.031 µg/mL
same,EC50,[3],0.038 µg/mL
same,binding result,[4],no binding
B2,Kd,[5],2.98 nM
same,koff,[5],0.00012 s⁻¹
same,kon,[5],40300 M⁻¹ s⁻¹
same,Kd,[6],2.59 nM
same,koff,[6],9.49e-05 s⁻¹
same,kon,[6],36600 M⁻¹ s⁻¹
same,ΔG,[7],-6.7 kcal/mol
same,Kd,[8],12000 nM
same,koff,[8],0.29 s⁻¹
same,kon,[8],24200 M⁻¹ s⁻¹
same,binding result,[9],no binding
same,binding result,[10],no binding (tested: 50 µg/ml)
same,binding result,[11],no binding (tested: 50 µg/ml)
same,binding result,[12],no binding (tested: 50 µg/ml)
same,binding result,[13],no binding (tested: 50 µg/ml)
same,Kd,[14],1010 nM
same,Kd,[15],19.2 nM
same,koff,[15],0.000122 s⁻¹
same,kon,[15],6350 M⁻¹ s⁻¹
same,Kd,[16],5.33 nM
same,koff,[16],0.000314 s⁻¹
same,kon,[16],58900 M⁻¹ s⁻¹
same,Kd,[17],2.5 nM
same,koff,[17],0.00013 s⁻¹
same,kon,[17],52000 M⁻¹ s⁻¹
same,Kd,[18],3.7 nM
same,koff,[18],0.00027 s⁻¹
same,kon,[18],69100 M⁻¹ s⁻¹
same,EC50,[1],0.301 µg/mL
same,EC50,[2],0.013 µg/mL
same,EC50,[3],0.02 µg/mL
same,fold change of dissociation rate against wild-type prothrombin,[19],~1000 fold
same,ΔG,[20],-11.7 kcal/mol
same,ΔG,[21],-11.5 kcal/mol
same,ΔG,[22],-11.7 kcal/mol
same,ΔG,[23],-8.2 kcal/mol
same,ΔG,[24],-10.5 kcal/mol
same,ΔG,[25],-11.3 kcal/mol
same,ΔG,[26],-11.6 kcal/mol
same,koff,[27],0.0702 s⁻¹
same,kon,[27],69600 M⁻¹ s⁻¹
